Laboratory results as given in patent US20180023071A1 (PRONASCI, published 2018).
Bridges are numbered along the chain shown (N, C = ends). Where no end group is shown, it is not given here.

Target: human Low Density Lipoprotein receptor (hLDL-R) (human, UniProt P01130 22-860)
Assay: cell-based or functional assay

Chain of human Low Density Lipoprotein receptor (hLDL-R) (P01130 22-860): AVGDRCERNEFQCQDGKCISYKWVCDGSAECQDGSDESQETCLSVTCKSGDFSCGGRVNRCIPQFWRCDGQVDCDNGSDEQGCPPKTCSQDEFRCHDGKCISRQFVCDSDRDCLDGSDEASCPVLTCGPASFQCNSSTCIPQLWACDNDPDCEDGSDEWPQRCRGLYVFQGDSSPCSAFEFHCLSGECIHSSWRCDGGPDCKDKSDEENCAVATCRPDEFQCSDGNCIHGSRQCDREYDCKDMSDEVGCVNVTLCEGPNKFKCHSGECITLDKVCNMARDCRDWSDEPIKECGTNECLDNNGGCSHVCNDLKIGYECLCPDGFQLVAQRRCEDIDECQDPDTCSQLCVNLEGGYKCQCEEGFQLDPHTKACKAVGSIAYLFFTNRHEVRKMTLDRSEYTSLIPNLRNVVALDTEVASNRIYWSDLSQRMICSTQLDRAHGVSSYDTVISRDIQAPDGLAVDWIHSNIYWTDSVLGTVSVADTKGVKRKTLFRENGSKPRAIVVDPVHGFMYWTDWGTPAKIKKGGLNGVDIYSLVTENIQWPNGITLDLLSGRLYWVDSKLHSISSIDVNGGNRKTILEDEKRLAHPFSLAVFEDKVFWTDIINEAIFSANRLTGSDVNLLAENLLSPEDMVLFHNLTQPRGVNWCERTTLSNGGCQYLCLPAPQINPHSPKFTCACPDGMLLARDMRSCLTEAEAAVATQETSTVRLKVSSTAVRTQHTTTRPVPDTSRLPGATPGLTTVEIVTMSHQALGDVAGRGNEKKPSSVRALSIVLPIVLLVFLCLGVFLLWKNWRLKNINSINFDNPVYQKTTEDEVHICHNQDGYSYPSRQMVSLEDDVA

B1: CP3 (Loop-3 peptide), S-S bridged cyclic hPCSK9 365-384 (peptide)
peptide: GEDIIGASSDCSTCFVSQSG
modifications: disulfide 11-14
LDL-R level in HepG2 cells (western blot, relative to TR), CP3 at 50 µM: ~3.5 fold
